Source: patent publication US20220112288A1 (published 2022)

How the values were obtained:
[1] = molecular target: T1, Recombinant human CD4 (R&D Systems, Cat. 10327-CD) (human, UniProt P01730 26-390, limits assumed); assay: BLI (Octet Red384), non-clonal supernatant on AMC sensor, 100 nM human CD4
T1 construct: Bought soluble recombinant protein used as analyte at 100 nM; also called huCD4

[2] = molecular target: T1, Recombinant human CD4 (R&D Systems, …); assay: BLI (Octet Red384), non-clonal supernatant on AMC sensor, 100 nM human CD4, 1:1 local fit;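 further: hybridoma antibodies captured from supernatant, single CD4 concentration as analyte, association and dissociation phases fitted together, giving single-point kinetic estimates per supernatant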
[3] = molecular target: T2, human CD8 on human pan T cells (CD4-negative population) (human, UniProt P01732 22-235; P10966 22-210); assay: flow cytometry, 20 nM antibody on human pan T cells, A647 anti-human IgG Fc; geomean ratio in CD4-negative population
T2 construct: whole, on cells; Endogenous CD8 on primary human pan T cells, read in the CD4-negative gate; also called CD8α/β
T2 sequence (P01732 22-235, chain 1 of 2): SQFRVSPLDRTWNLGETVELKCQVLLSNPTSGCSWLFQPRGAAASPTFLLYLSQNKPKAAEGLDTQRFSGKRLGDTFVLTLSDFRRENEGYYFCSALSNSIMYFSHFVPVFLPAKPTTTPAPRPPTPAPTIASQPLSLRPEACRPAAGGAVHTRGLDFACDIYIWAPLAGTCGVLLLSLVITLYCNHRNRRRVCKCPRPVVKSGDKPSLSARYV
T2 sequence (P10966 22-210, chain 2 of 2): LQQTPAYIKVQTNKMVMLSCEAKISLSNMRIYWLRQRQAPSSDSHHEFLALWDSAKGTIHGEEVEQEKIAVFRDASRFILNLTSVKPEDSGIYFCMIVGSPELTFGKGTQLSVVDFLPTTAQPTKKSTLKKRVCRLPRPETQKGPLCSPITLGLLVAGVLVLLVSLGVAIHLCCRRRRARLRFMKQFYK

Binder	Response [1]	Kd [2] [nM]	koff [2] [s⁻¹]	kon [2] [M⁻¹ s⁻¹]	Cell Binding to Human PanT Signal/Background (of CD4 negative population) [3]
75110_08F20A (antibody, V domains shown, Non-clonal AlivaMab Mouse Kappa hybridoma supernatant, captured by anti-mouse IgG Fc (human V regions, mouse Fc)) VH: QVQLQESGPGLVKPSETLSLTCSVSGGSISTYYWSWIRQPAGKGLEWIGRICTTENTNYNPSLKSRVTMSIDSSKNQFSLKLSSVTAADTAVYYCARDLERLNYYGMDVWGQGATVTVSS VL: DIQMTQSPSSLSASVGDRVTITCQASQDISKYLNWYQQKPGIAPKLLIYDASNLETGVPSRFSGSGSGTDFTFTISSLQPEDFATYYCQQYDSLPITFGQGTRLEIK	0.32	1.9	0.00026	140000	–
75110_08G08A (antibody, V domains shown, Non-clonal AlivaMab Mouse Kappa hybridoma supernatant, captured by anti-mouse IgG Fc (human V regions, mouse Fc)) VH: QVQLQESGPGLVKPSETLSLTCSVSGGSISTYYWSWIRQPAGKGLEWIGRICTTENTNYNPSLKSRVTMSIDSSKNQFSLKLSSVTAADTAVYYCARDLERLNYYGMDVWGQGATVTVSS VL: DIQMTQSPSSLSASVGDRVTITCQASQDISNYLNWYQQKPGIAPKLLIYDASNLETGVPSRFSGSGSGTDFTFTISSLQPEDIATYYCQQYDSLPITFGQGTRLEIK	0.13	3.4	0.00096	280000	–
CD8B200 (antibody, human IgG1, kappa, V domains shown, Full-length human IgG1, kappa; V regions recovered from mouse hybridoma) VH: EVQLQQSGAELVKPGASVKLSCKASGYTFTNYWIHWVKQRPGQGLEWIGNIDPSDSETHYNQKFKDKATLTVDKSSSTAYMQLISLTSEDSAVYYCASGLTGTGYYWGQGTTLTVSS VL: DIQMTQTTSSLSASLGDRVTITCRASQDISPYLNWYQQKPEGTIKLLIYYTSKLHSGVPSRFSGSGSGTDYSLTISNLEQEDIATYFCQQDNTLPYTFGSGTKLELKR	–	–	–	–	1990
CD8B246 (antibody, human IgG1, kappa, V domains shown, Full-length human IgG1, kappa; V regions recovered from mouse hybridoma) VH: QVQLKESGPGILKPSQTLSLTCSFSGFSLSTSGMNVGWIRQPSGKGLEWLAHIWWDDDKYYNPSLKSQLTISKDTSRNQVFLKITSVDTADTATYYCARRGNYGNYEFAYWGQGTTLTVSS VL: DIQMTQTTSSLSASLGDRVTISCRASQDIRNYLNWYQQKPDGTVKLLIYHTSRLHSGVPSRFSGSGSGTDYSLTISNLEQEDIATYFCQQGNTLPWTFGAGTKLELKR	–	–	–	–	1110
75110_07J02A (antibody, V domains shown, Non-clonal AlivaMab Mouse Kappa hybridoma supernatant, captured by anti-mouse IgG Fc (human V regions, mouse Fc)) VH: EVQLVESGGGLVQPGGSLRLSCAASGFTFSSYWMSWVRQAPGKGLEWVANIKEDGSEKYYVDSVKGRFTISRDNAKNSLYLQMNSLRAEDTAVYYCARDGSYSGYGMDVWGQGTTVTVSS VL: AIQMTQSPSSLSASVGDRVTITCRASQGIRNDLGWYQQKPGKAPKLLIYAASSLQSGVPSRFSGRGSGTDFALTISSLQPEDFATYYCLLDYNYPYTFGQGTRLEIK	0.13	0.56	3.83e-05	68400	–
75110_06G04A (antibody, V domains shown, Non-clonal AlivaMab Mouse Kappa hybridoma supernatant, captured by anti-mouse IgG Fc (human V regions, mouse Fc)) VH: QVQLLESGPGLVKPSETLSLTCTVSGGSISSYYWSWIRQPAGKGLEWIGRIYISGSTNYNPSLKSRVTMSIDTSENQFSLNLSSVTAADTAVYYCARELERPYYYGMDVWGQGTTVTVSS VL: DIQMTQSPSSLSASVGDRVTITCQASQDISNYLNWYQQKPGKAPKLLIYNASTLETGVPSRFSGSGSGTDFTFTISSLQPEDIATYYCQQYDNLPLTFGGGTKVEFK	0.12	14	0.001	75000	–
CD8B240 (antibody, human IgG1, kappa, Full-length human IgG1, kappa; V regions recovered from mouse hybridoma) heavy: not shown light: DIVMTQSPATLSVTPGDRVSLSCRASQSISDFLHWYQQKSHESPRLLIKYASQSISGIPSRFSGSGSGSDFTLTINSVEPEDVGVYYCQNGHSFPYTFGSGTKLEIKRTVAAPSVFIFPPSDEQLKSGTASVVCLLNNFYPREAKVQWKVDNALQSGNSQESVTEQDSKDSTYSLSSTLTLSKADYEKHKVYACEVTHQGLSSPVTKSFNRGEC	–	–	–	–	1310
CD8B268 (antibody, human IgG1, kappa, V domains shown, Full-length human IgG1, kappa; V regions recovered from mouse hybridoma) VH: QVQLQQSGAELVKPGASVKLSCKASGYTFTVYTIHWVKQRSGQGLEWIGWFYPGSGNIKYNEKFKDKATLTADKSSHTVYMELSRLTSEDSAVYFCARHEDNHYYDGNSWFAYWGQGTLVTVSA VL: DIQMTQSPASLSASVGQTVTITCRASGNIHNYLAWFQQKQGKSPQLLVYNAKTLADGVPSRFSGSGSGTQYSLKINSLQTEDFGNYYCQHFWNTPYTFGGGTKLEIKR	–	–	–	–	1170

The next lines start with the values.

Response [1]	Kd [2] [nM]	koff [2] [s⁻¹]	kon [2] [M⁻¹ s⁻¹]	Cell Binding to Human PanT Signal/Background (of CD4 negative population) [3]	Binder
–	–	–	–	2500	CD8B270 (antibody, human IgG1, kappa, V domains shown, Full-length human IgG1, kappa; V regions recovered from mouse hybridoma) VH: QVQLQQPGAELVKPGASVMLSCKASGYTFTNYWMHWVKQRPGQGLEWIGNIDPSDSETHYNQKFKDKATLTVDKSSSTAYMQLSSLTSEDSAVYYCASGLTGTGYYWGQGTTLTVSS VL: DIQMTQTTSSLSASLGDRVTITCRASQDIRPYLNWYQQKPEGTIKLLIYFTSKLHSGVPSRFSGSGSGTDYSLTISNLEQEDIATYFCQQDNTLPYTFGSGTKLELKR
–	–	–	–	923	CD8B304 (antibody, human IgG1, kappa, V domains shown, Full-length human IgG1, kappa; V regions recovered from mouse hybridoma) VH: QVTLKESGPGILKPSQTLSLTCSFSGFSLSTSGMNVGWIRQPSGKGLEWLAHIWWDDDKYYNPSLKSQLTISKDTSRNQVFLKITSVDTADTATYYCARRGNYGNYEFAYWGQGTTVTVSS VL: DIQMTQTTSSLSASLGDRVTISCRASQDIRNYLNWYQQKPDGTVKLLIYHTSRLHSGVPSRFSGSGSGTDYSLTISNLDQEDIATYFCQQGNTLPWTFGAGTKLELKR
–	–	–	–	1180	CD8B303 (antibody, human IgG1, kappa, V domains shown, Full-length human IgG1, kappa; V regions recovered from mouse hybridoma) VH: QVQLKESGPGLVAPSQSLSITCTVSGFSLSIYSIHWVRQPPGKGLEWLGMIWGGGSTDYNSTLNSRLSIIKDNSKSQVFLKMNSLQTDDTAMYYCARNPHHYGGSTGAMDYWGQGTTVTVSS VL: DVQMIQSPSSLSASLGGTVTITCKASQDIKKYMAWYQHKPGKGPRLLIHYTSSLQPGIPSRFSGSGSGRDYYFSISNLEPEDIATYFCLQYDNLFTFGSGTKLELKR
0.0363	< 0.001	< 1e-07	78800	–	75110_14G10A (antibody, V domains shown, Non-clonal AlivaMab Mouse Kappa hybridoma supernatant, captured by anti-mouse IgG Fc (human V regions, mouse Fc)) VH: EVQLVESGGGLVKPGGSLRLSCAASGFTFSSYSMNWVRQAPGKGLEWVSFISSSSSYIYYADSVKGRFTISRDNAKNSLYLQMNSLRAEDTAVYYCARERGDDYGDYEGAFDIWGQGTMVTVSS VL: not shown
–	–	–	–	911	CD8B271 (antibody, human IgG1, kappa, V domains shown, Full-length human IgG1, kappa; V regions recovered from mouse hybridoma) VH: DVQLQESGPGLVAPSQSLSITCTVSGFSLSIYSIHWVRQPPGKGLEWLGMIWGGGDTDYNSALKSRLSISKDNSESQVFLKMNSLQTDDTAMYYCARNPHYYGGTYEYFDVWGTGTTVTVSS VL: DIQMTQTTSSLSASLGDRVTISCSASQGISNYLNWYQQKPDGTVKLLIYDTSILYSGVPSRFSGSGSGTDYSLTISNLEPEDVATYYCQQYSNLPYTFGSGTKLEIKR
–	–	–	–	1090	CD8B312 (antibody, human IgG1, kappa, V domains shown, Full-length human IgG1, kappa; V regions recovered from mouse hybridoma) VH: QVQLQQPGADLVKPGASVKLSCKASGYTFTSFWMHWVKQRPGQGLEWIGNVDPSDSQTHYNQKFKDKATLTVDKSSNTAYMQLSSLTSEDSAVYYCARSTYYRYDGPFTYWGQGTTVTVSS VL: DIVLTQSPATLSVTPGDSVSLSCRASQSINNNLHWYQQKSHESPRLLIKYTSQSISGIPSRFSGSGSGPDFTLSINSVETEDFGMYFCQQSNSWPLTFGGGTKLEIKR
–	–	–	–	1560	CD8B364 (antibody, human IgG1, kappa, V domains shown, Full-length human IgG1, kappa; V regions recovered from mouse hybridoma) VH: QVQLQQPGAELVKPGASVKLSCKASGYTFTSYWMHWVNRRPGQGLEWIGEINPSNGDSYYNEKFKRKATLTVDISSSTAYMQLSSLTSEDSAVYYCTRSMYYDGRAGAYWGQGTTVTVSS VL: DIVLTQSPASLSVATGEKVTIRCITSTDIDDDMNWYQQKPGEPPKLLISEGNTLRPGVPSRFSSSGYGTDFVFTIENTLSEDVADYYCLQSDNMPLTFGAGTKLELKR
–	–	–	–	2440	CD8B191 (antibody, human IgG1, kappa, Full-length human IgG1, kappa; V regions recovered from mouse hybridoma) heavy: not shown light: DIVLTQSPATLSVTPGDRVSLSCRASQSISDFLHWYQQKSHESPRLLIKYASQSISGIPSRFSGSGSGSDFTLTINSVEPEDVGVYYCQNGHSFPYTFGSGTKLEIKRTVAAPSVFIFPPSDEQLKSGTASVVCLLNNFYPREAKVQWKVDNALQSGNSQESVTEQDSKDSTYSLSSTLTLSKADYEKHKVYACEVTHQGLSSPVTKSFNRGEC
–	–	–	–	938	CD8B273 (antibody, human IgG1, kappa, V domains shown, Full-length human IgG1, kappa; V regions recovered from mouse hybridoma) VH: QVQLQQSGAELVKPGASVKLSCKASGYTFTEYTIHWVKQRSGQGLEWIGWFYPGTGSIKYNEKFKDKATLTADKSSHTVYMELSKLTSEDSAVYFCARHEDNHYYDGNSWFAYWGQGTLVTVSA VL: DIQMTQSPASLSASVGETVTITCRASGNIHNYLAWFQQKQGKSPQLLVYNAKTLADGVPSRFSGSGSGTQYSLKINSLQAEDFGSYYCQHFWSTPYTFGSGTKLEIKR
–	–	–	–	827	CD8B213 (antibody, human IgG1, kappa, V domains shown, Full-length human IgG1, kappa; V regions recovered from mouse hybridoma) VH: EVQLQQSGPELVKPGDSMKMSCKASGYIFTDYYMDWVKQSHGKSLEWIGYIYPNNGITSYNQKFKGRATLTIDKSSSTAYMELHSLTSEDSAVYYCARSIYYDHGGGFPYWGQGTSVTVSS VL: DIVLTQSQKFMSTSVGDRVSVTCKASQNVDKYVAWYQQKPGQSPKALIYSASYRYSGVPDRFTGSGSGTDFTLTISNVQSEDLAEYFCQQYNTYPSFGSGTKLEMKR
–	–	–	–	1050	CD8B361 (antibody, human IgG1, kappa, V domains shown, Full-length human IgG1, kappa; V regions recovered from mouse hybridoma; also called CD8B36I) VH: EVQLQQSGPELVKPGNSVKMSCKASGYTFTDYYMDWVKQSHGTSLEWIGYIYPNNGDTRYNQKFKDKATLTVDKSSSTAYMELHSLTSEDSAVFYCARSIYYDHGGGFPYWGQGTLVTVSA VL: DIVMTQSQKFMSTSVGDRVSVTCKASQNVGTYVAWYQQKPGQSPKALIYSASYRYSGVPDRFTGSGSGTDFTLTINNVQSEDLAEYLCQQYNSYPTFGGGTRLEIKR
